Reference: PMC6937562

How the values were obtained:
C3b (human) [1] = molecular target: C3b (human) (UniProt P01024); test: SPR; C1 chip with immobilised C3b; cycles of a mixture of FB and FD, then C3, injected at 10 μl/min; Biacore T200, 25 °C, HBS-P pH 7.4 with 1 mM MgCl2
C3b (human) [2] = molecular target: C3b (human) (UniProt P01024); test: AFM force-distance measurements; Cys-PspCN thiol-coupled to the SAM on the AFM probe tip, alone or with FH anchored to it; partner amine-coupled to the SAM on a gold wafer; PBS, laboratory at 22 °C; single (type 3) detachment events
C3b (human) [3] = molecular target: C3b (human) (UniProt P01024); test: SPR; homemade HJEM7 chip (50% OH, 25% COOH, 25% propargyl), 144 RU C3b amine-coupled; FH (2 μM to 3.9 nM) or FH 19–20 (10 μM to 3.9 nM) flowed; Biacore T200, 25 °C, HBS-P pH 7.4; 1:1 steady-state model
C3b (human) [4] = molecular target: C3b (human) (UniProt P01024); test: SPR; homemade HJEM7 chip, 143 RU C3b amine-coupled and 174 RU 3′-sialyllactose clicked on; FH (2 μM to 3.9 nM) or FH 19–20 (10 μM to 3.9 nM) flowed; Biacore T200, 25 °C, HBS-P pH 7.4; 1:1 steady-state model
[5] = molecular target: PspCN-anchored FH (on the HJEM6 SPR chip) (human | Streptococcus pneumoniae) (UniProt P08603); test: SPR; homemade HJEM6 chip, FH (54 RU) captured by clicked sumo-Cys-PspCN-azide (18 RU); C3b flowed (1 μM to 3.9 nM); 1:1 steady-state model

factor B (natural protein) showed a percent of C3b molecules binding FB (C3b (human) [1]) of under 80%.

For “PspCN-anchored FH (on the AFM probe tip) (from UniProt P08603 19-1231) (complex)”, the detachment force of single events (C3b (human) [2]) was 0.1 to 0.26 nN and the mean detachment force (C3b (human) [2]) was 0.17 nN.

FH 19–20 (domain or fragment) was tested, and the Kd (C3b (human) [3]) was 350 nM and the Kd (C3b (human) [4]) was 2600 nM.

“C3b (from UniProt P01024 23-667; P01024 749-1663) (natural protein)” was tested, and the Kd [5] was 70 nM.
